# Laboratory results as given in US20240377400A1, “METHODS FOR TREATING A SUBTYPE OF COLORECTAL CANCER” (Cornell University, priority 2021, published 2024).
# Key:
# [1] = system: tumors from Prkci^fl/fl Prkcz^fl/fl Villin-cre (DKO) mice; test: scRNAseq and IHC of DKO mouse intestinal tumors treated with PVHA or Galunisertib; format: in vivo
# Experimental: FIG. 3A illustrates the experimental design: Prkci^fl/flPrkcz^fl/fl (DKO) mice were treated either with PVHA (0.0375 mg/Kg twice per week) or Galunisertib (10 mg twice daily) as described. Intestinal tumors were analyzed by scRNAseq.
# To identify the mechanism of action of PVHA in the treatment of CMS4 tumors, scRNAseq was performed using 10× Genomics Chromium platform on tumors from Prkci^fl/fl Prkcz^fl/fl Villin-cre (DKO) mice (n=5) treated with PVHA for 14 weeks (n=3), as compared to those treated with Galunisertib (GAL) for 17 weeks (n=3), as shown in experimental design (FIG. 3A). Unsupervised clustering identified tumor and normal epithelial cells as well as stromal and immune cells with selective markers for each population (FIGS. 3B-3C). […] Among tumor clusters (0,4,6), a cell population with transcriptomic similarities to the recently identified “revival stem cells” (RSC; high Clu) in the vehicle treated tumors was identified (FIGS. 3F-3G).
# [2] = system: Prkci^f/fPrkcz^f/f; Villin-Cre tumors; test: Endogenous Prkci^f/fPrkcz^f/f; Villin-Cre tumors treated with PEGPH20: histology, tumor burden, Quant-seq; format: in vivo, mouse
# Experimental: FIGS. 9E-9O illustrate Prkci^f/fPrkcz^f/f; Villin-Cre mice (mOle and female, 11-week-old) treated with Veh (n=10) or PEGPH20 (n=12), 0.0375 mg/kg for 3 weeks. Experimental design (E); IHC HA, Masson's trichrome, and αSMA(F); staining quantification (n=5) (G); macroscopic images of tumors (H); total tumor number, tumor size, and tumor load (I); quantification of cancer incidence (J); and sessile serrated lesions (SSL) and carcinoma quantification of tumors (K). Scale bars, 50 μm (F), 10 mm (H). The red arrow denotes tumors>5 mm (H). (L-N) GSEA of transcriptomic data from Quant-seq on PEGPH20-treated tumors versus Veh (n=3) using compilation H (MSigDB) (L), stroma-related signatures (M) and serrated-related signatures (N). (O) GSEA plots of the indicated gene signatures for PEGPH20-treated tumors versus Veh (n=3). Results are shown as mean±SEM *p<0.05, **p<0.01, ***p<0.001, ****p<0.0001. See also FIG. 16.
# Animal handling and experimental procedures conformed to institutional guidelines and were approved by the Sanford-Burnham-Prebys Medical Discovery Institute Institutional Animal Care and Use Committee, and by the Weill Cornell Medicine Institutional Animal Care and Use Committee. Prkci^f/fPrkcz^f/f, Villin-Cre, Prkci^f/fPrkcz^f/f; Villin-Cre and Villin-CreERT2 mice were previously described (el Marjou et al., 2004; Madison et al., 2002; Nakanishi et al., 2018) Prkci^f/fPrkcz^f/f; Villin-CreERT2 mice were generated by breeding Prkci^f/fPrkcz^f/f mice with Villin-CreERT2 (Jackson Laboratory, stock number 020282) mice. All mouse strains were generated in a C57BL/6 background and were born and maintained under pathogen-free conditions. For PEGPH20 treatment, 11-week-old Prkci^f/fPrkcz^f/f; Villin-Cre were retro-orbitally injected twice a week for 3 weeks with a dose of 0.0375 mg/kg of PEGPH20 (Halozyme Therapeutics), until they were sacrificed. Control mice were treated with vehicle. For xenograft experiments, 6-7 week-old male C57BL/6 were purchased from Charles River Labs (Wilmington, MA, USA). All mice were maintained on food and water ad libitum and were age-matched and co-housed for all experiments. Mice were sacrificed and small intestine, colon, tumors or other organs were collected for analysis. All genotyping was done by PCR. Age- and sex-matched mice were used for all experiments
# Tissues from indicated mice were isolated, rinsed in ice-cold PBS, fixed in 10% neutral buffered formalin overnight at 4° C., dehydrated, and embedded in paraffin. Sections (5 μm) were stained with hematoxylin and eosin (H&E). For immunohistochemistry, sections were deparaffinized, rehydrated, and then treated for antigen retrieval. After blocking in Protein Block Serum-Free solutions (DAKO), tissues were incubated with primary antibody overnight at 4° C. followed by incubation with biotinylated secondary antibody. Endogenous peroxidase was quenched in 3% H2O2 in water for 10 minutes at room temperature. Antibodies were visualized with avidin-biotin complex (Vectastain Elite; Vector Laboratories) using diaminobenzidine as the chromogen. Stained sections were analyzed with a Zeiss light microscope supplemented with Zen 3.3 Bule edition software. For immunofluorescence, the signal was visualized using the OPAL™ 4-Color Manual IHC Kit (Akoya Biosciences, MA), which allows simultaneous detection of multiple targets in the same image. Fluorophores Opal 520, Opal 570, and TSA Plus Cyanine 5 were used, and the sections were counterstained with Spectral DAPI.
# Total RNA was extracted using Quick-RNA MiniPrep kit (Zymo Research). Libraries were prepared from 200 ng of total RNA using the QuantSeq 3′ mRNA-Seq Library Prep Kit FWD for Illumina from Lexogen, and optional UMIs (Vienna, Austria). Barcoded libraries were pooled, and single end sequenced (1×75) on the Illumina NextSeq 500 using the High output V2.5 kit (Illumina Inc., San Diego CA).
# For 3′RNA-Seq, read data was processed with the BlueBee Genomics Platform (BlueBee, San Mateo, CA). […]
# [3] = small intestine, PEGPH20 0.0375 mg/kg, 3 weeks
molecule,measurement,setting,value
"PEGPH20: a PEGylated version of human recombinant PH20 hyaluronidase; clinical-grade pegylated hyaluronidase (Halozyme Therapeutics) (protein, UniProt P38567 36-490, looked up, PEGylated) Hyaluronidase PH-20: LNFRAPPVIPNVPFLWAWNAPSEFCLGKFDEPLDMSLFSFIGSPRINATGQGVTIFYVDRLGYYPYIDSITGVTVNGGIPQKISLQDHLDKAKKDITFYMPVDNLGMAVIDWEEWRPTWARNWKPKDVYKNRSIELVQQQNVQLSLTEATEKAKQEFEKAGKDFLVETIKLGKLLRPNHLWGYYLFPDCYNHHYKKPGYNGSCFNVEIKRNDDLSWLWNESTALYPSIYLNTQQSPVAATLYVRNRVREAIRVSKIPDAKSPLPVFAYTRIVFTDQVLKFLSQDELVYTFGETVALGASGIVIWGTLSIMRSMKSCLLLDNYMETILNPYIINVTLAAKMCSQVLCQEQGVCIRKNWNSSDYLHLNPDNFAIQLEKGGKFTVRGKPTLEDLEQFSEKFYCSCYSTLSCKEKADVKDTDAVDVCIADGVCIDAFLKPPMETEEPQIFYNASPSTLS",numbers of inferred interactions of tumor epithelial cells with immune cells,"[1]; CellphoneDB, as compared to GAL treatment",higher
same,"Cd81+Pdgfra− fibroblast around the Crypt, IHC",[1]; DKO intestine,induction
same,"Trophocyte-like fibroblast cluster (Cd34, Cd81)",[1]; scRNAseq,strongly increased
same,"Cd8 T cells, cell type proportion",[1]; scRNAseq T cells,increase
same,proportion of Treg,[1]; scRNAseq T cells,reduce
same,"fibroblast clusters associated with human CRC (Grem1/Sfrp1, Igf1/Cxcl14), CMS4 subtype (Sfrp2) and tumor initiation (Ptgs2/Spp1)",[1]; scRNAseq cell-type proportion,complete elimination
same,"tumor cells, cell percentage analysis","[1]; scRNAseq epithelial cells, compared to vehicle or GAL-treated",clear reduction
same,tumoral goblet population,[1]; scRNAseq goblet cells,reduction
same,"T cells, cell-type proportion",[1]; scRNAseq immune cells,increase
same,"myeloid cells, cell-type proportion",[1]; scRNAseq immune cells,decrease
same,TAN1 (anti-tumoral neutrophils),[1]; scRNAseq myeloid cells,increased
same,TAN2 (pro-tumoral neutrophils),[1]; scRNAseq myeloid cells,reduced
same,proportion of dendritic cells,[1]; scRNAseq myeloid cells,increased
same,percentage of stromal and immune cells,"[1]; scRNAseq, PVHA 0.0375 mg/Kg twice per week, 14 weeks, Galunisertib 10 mg twice daily, 17 weeks",decreased
same,mature goblets proportion,"[1]; scRNAseq, as compared to GAL",increased
same,Lgr5 Stem Cells population,"[1]; scRNAseq, population lost in the DKO intestine",recovered
same,number of stromal cells,"[1]; scRNAseq, without apparent changes in cell-type proportions",reduced
same,Clu IHC,[1]; tumor area,decrease
same,"immature goblets, IHC double staining for Alcian blue and Lyz1",[1]; tumor area,reduction
same,"signatures related to invasion and tumor progression (EMT, myogenesis, angiogenesis, TGFβ signaling), stromal activation, serrated tumorigenesis and the CMS4 subtype","[2]; GSEA of Quant-seq, treated versus Veh",decrease
same,IFN and allograft rejection signatures,"[2]; GSEA of RNAseq, endogenous tumors",enrichment
same,stromal HA accumulation,"[2]; PEGPH20 0.0375 mg/kg twice a week, 3 weeks, IHC",eliminated
same,cancer incidence in the small intestine,"[2]; PEGPH20 0.0375 mg/kg, 3 weeks",lower
same,invasive carcinomas,"[2]; PEGPH20 0.0375 mg/kg, 3 weeks",reduced
same,sessile serrated lesions (SSL),"[2]; PEGPH20 0.0375 mg/kg, 3 weeks",fewer
same,collagen deposition and αSMA expression,"[2]; PEGPH20 0.0375 mg/kg, 3 weeks, Masson's trichrome, IHC",reduced
same,intestinal and colon tumors,"[2]; figure legend title, FIGS. 16A-16E",reduces
same,colon tumorigenesis,[2]; proximal colon tumors,reduced
same,average tumor size,[2]; [3],significant reduction
same,tumor load,[2]; [3],significant reduction
same,tumor number,[2]; [3],significant reduction
